Assay results as given in article PMC8615271, “Functional Interplay between P5 and PDI/ERp72 to Drive Protein Folding” (Biology, 2021).

B1: P5 (reduced form) (enzyme, human, UniProt Q15084 20-440, looked up)
chain: LYSSSDDVIELTPSNFNREVIQSDSLWLVEFYAPWCGHCQRLTPEWKKAATALKDVVKVGAVDADKHHSLGGQYGVQGFPTIKIFGSNKNRPEDYQGGRTGEAIVDAALSALRQLVKDRLGGRSGGYSSGKQGRSDSSSKKDVIELTDDSFDKNVLDSEDVWMVEFYAPWCGHCKNLEPEWAAAASEVKEQTKGKVKLAAVDATVNQVLASRYGIRGFPTIKIFQKGESPVDYDGGRTRSDIVSRALDLFSDNAPPPELLEIINEDIAKRTCEEHQLCVVAVLPHILDTGAAGRNSYLEVLLKLADKYKKKMWGWLWTEAGAQSELETALGIGGFGYPAMAAINARKMKFALLKGSFSEQGINEFLRELSFGRGSTAPVGGGAFPTIVEREPWDGRDGELPVEDDIDLSDVELDDLGKDEL
notes: human P5 (PDIA6), Lys20-Leu440, cloned into pET15b; Used reduced (10 mM dithiothreitol treatment during purification); this was not measured here; also called ERp5; PDIA6; source: E. coli BL21 (DE3), purified (Ni-NTA, thrombin digestion, RESOURCE Q, Superdex 200)

Key:
Details in all cases: both partners purified
ERp72 [1] = molecular target: T1, ERp72 (human, UniProt P13667 25-645); assay: far-Western, overlay or dot blot; reduced purified prey proteins (from 40 µM stocks, 3 µL) dotted on nitrocellulose; blocked with 5% skim milk in TBST; incubated with 0.2 µM reduced P5 in 20 mM Tris-HCl pH 7.6, 150 mM NaCl, 0.05% Tween 20 at 4 °C for 3 h; bound P5 detected with anti-P5 antiserum
T1 construct: human ERp72, Glu25-Leu645, cloned into pET15b; source: E. coli BL21 (DE3), purified (Ni-NTA, thrombin digestion, RESOURCE Q, Superdex 200)
T1 sequence (looked up): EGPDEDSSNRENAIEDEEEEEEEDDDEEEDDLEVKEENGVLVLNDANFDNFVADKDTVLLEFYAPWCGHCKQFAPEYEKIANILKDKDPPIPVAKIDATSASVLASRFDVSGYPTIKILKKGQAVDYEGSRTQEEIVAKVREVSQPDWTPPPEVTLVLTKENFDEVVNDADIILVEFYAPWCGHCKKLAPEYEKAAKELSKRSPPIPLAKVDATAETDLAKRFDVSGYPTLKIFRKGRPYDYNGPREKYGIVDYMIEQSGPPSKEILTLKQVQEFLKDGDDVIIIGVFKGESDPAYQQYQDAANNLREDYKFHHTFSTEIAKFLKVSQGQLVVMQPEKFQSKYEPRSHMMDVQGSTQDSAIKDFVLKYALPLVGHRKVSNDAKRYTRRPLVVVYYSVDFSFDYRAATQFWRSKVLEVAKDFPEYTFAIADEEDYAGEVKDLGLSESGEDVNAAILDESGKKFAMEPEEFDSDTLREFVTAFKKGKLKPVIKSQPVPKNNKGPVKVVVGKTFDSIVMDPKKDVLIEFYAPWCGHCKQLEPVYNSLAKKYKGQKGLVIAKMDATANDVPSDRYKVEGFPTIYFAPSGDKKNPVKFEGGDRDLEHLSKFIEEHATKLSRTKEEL

IRE1α LD = molecular target: T2, IRE1α LD (human, UniProt O75460 24-446); assay: as above
T2 construct: human IRE1 (IRE1α LD), Ser24-Thr446, cloned into pGEX6p-1; It prints 'C-terminal GST', although pGEX6p-1 usually adds GST at the N-terminus; both tags were removed in any case; also called ER stress sensor IRE1; source: E. coli BL21 (DE3), purified (Glutathione Sepharose 4B, PreScission digestion, Ni-NTA, RESOURCE Q, Superdex 200); not shown: GST, C-terminal, cleaved
T2 sequence (looked up): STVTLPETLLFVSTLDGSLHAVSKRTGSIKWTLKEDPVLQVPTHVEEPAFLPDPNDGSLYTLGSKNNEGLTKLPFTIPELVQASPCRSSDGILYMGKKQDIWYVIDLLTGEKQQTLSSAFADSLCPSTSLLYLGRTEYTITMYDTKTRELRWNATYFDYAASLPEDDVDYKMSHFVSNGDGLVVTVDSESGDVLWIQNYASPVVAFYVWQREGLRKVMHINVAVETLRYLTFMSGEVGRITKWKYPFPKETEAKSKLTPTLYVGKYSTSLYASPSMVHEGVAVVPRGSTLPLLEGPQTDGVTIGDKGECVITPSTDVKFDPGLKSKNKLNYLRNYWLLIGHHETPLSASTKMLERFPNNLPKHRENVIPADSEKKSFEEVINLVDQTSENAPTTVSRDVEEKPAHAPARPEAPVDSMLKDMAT

PDI [2] = molecular target: T3, PDI (human, UniProt P07237 18-508); assay: as above
T3 construct: human PDI (P4HB), Asp18-Leu508, cloned into pET15b; also called protein disulfide isomerase; P4HB; source: E. coli BL21 (DE3), purified (Ni-NTA, thrombin digestion, RESOURCE Q, Superdex 200)

ERp72 [3] = molecular target: T1, ERp72; assay: ITC; 280 µM P5 Cys55/58/190/193Ala mutant in the syringe (50 mM HEPES pH 7.2, 150 mM NaCl) titrated into 40 µM PDI or ERp72 in the cell (50 mM HEPES pH 7.2); 30 °C; one set of sites model
PDI [4] = molecular target: T3, PDI; assay: as above
P5 (reduced form) = molecular target: B1; assay: far-Western, overlay or dot blot; reduced purified prey proteins (from 40 µM stocks, 3 µL) dotted on nitrocellulose; blocked with 5% skim milk in TBST; incubated with 0.2 µM reduced P5 in 20 mM Tris-HCl pH 7.6, 150 mM NaCl, 0.05% Tween 20 at 4 °C for 3 h; bound P5 detected with anti-P5 antiserum

T3 sequence (P07237 18-508): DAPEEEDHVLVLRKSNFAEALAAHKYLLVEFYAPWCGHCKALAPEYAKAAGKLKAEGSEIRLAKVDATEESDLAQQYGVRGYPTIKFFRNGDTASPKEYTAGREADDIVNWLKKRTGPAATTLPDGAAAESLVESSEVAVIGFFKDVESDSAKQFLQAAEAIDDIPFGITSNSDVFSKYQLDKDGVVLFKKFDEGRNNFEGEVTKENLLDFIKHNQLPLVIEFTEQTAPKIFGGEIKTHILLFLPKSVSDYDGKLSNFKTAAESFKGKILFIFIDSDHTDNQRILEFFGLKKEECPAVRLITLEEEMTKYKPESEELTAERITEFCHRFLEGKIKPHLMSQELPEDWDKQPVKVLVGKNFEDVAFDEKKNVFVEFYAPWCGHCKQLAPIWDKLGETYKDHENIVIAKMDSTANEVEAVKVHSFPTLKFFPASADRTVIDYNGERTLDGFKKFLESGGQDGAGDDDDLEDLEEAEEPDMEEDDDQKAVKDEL

## B1
ERp72 [1]
  binding result: binds
IRE1α LD
  binding result: binds
PDI [2]
  binding result: binds

B2: Catalytically-inactive P5 (Cys55/58/190/193Ala) mutant (enzyme, human, UniProt Q15084 20-440, looked up)
chain: LYSSSDDVIELTPSNFNREVIQSDSLWLVEFYAPWAGHAQRLTPEWKKAATALKDVVKVGAVDADKHHSLGGQYGVQGFPTIKIFGSNKNRPEDYQGGRTGEAIVDAALSALRQLVKDRLGGRSGGYSSGKQGRSDSSSKKDVIELTDDSFDKNVLDSEDVWMVEFYAPWAGHAKNLEPEWAAAASEVKEQTKGKVKLAAVDATVNQVLASRYGIRGFPTIKIFQKGESPVDYDGGRTRSDIVSRALDLFSDNAPPPELLEIINEDIAKRTCEEHQLCVVAVLPHILDTGAAGRNSYLEVLLKLADKYKKKMWGWLWTEAGAQSELETALGIGGFGYPAMAAINARKMKFALLKGSFSEQGINEFLRELSFGRGSTAPVGGGAFPTIVEREPWDGRDGELPVEDDIDLSDVELDDLGKDEL
notes: human P5 (PDIA6), Lys20-Leu440, with the four active-site cysteines changed to alanine; The limits are those stated for the human P5 gene in pET15b; also called mutated P5; source: E. coli BL21 (DE3), purified (Ni-NTA, thrombin digestion, RESOURCE Q, Superdex 200)
ERp72 [3]
  dH: -44.8 ± 3.35 kJ/mol
  stoichiometry N: 0.1
PDI [4]
  dH: -18.4 ± 0.837 kJ/mol
  stoichiometry N: 0.1

B3: ERp46 (enzyme)
chain: not shown
notes: human ERp46, Arg33-Leu432, cloned into pET15b; source: E. coli BL21 (DE3), purified (Ni-NTA, thrombin digestion, RESOURCE Q, Superdex 200)
P5 (reduced form)
  binding result: binds
